Measured values reported in publication PMC4175418 (Methods in molecular biology (Clifton, N.J.), 2014).

Biological target: HIV-1 Rev (HIV-1, UniProt P04618)
Sequence (P04618 whole entry): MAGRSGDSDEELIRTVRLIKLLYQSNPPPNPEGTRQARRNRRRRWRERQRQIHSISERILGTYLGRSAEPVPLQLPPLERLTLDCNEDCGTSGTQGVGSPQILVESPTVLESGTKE

B1: anti-Rev Fab (chimeric rabbit/human) (Fab, V domains shown)
VH: QEQLVESGGRLVTPGTALTLTCKVSGFSLSGFWLNWVRQAPGKGLEWVGAIYRGSGSEWYASWAKGRFTISDTSTTVTLKLTSPTTEDTATYFCAADTTDNGYFTIWGPGTLVTVSS
VL: ELVMTQTPSSVSEPVGGTVTIKCQASQSISSWLSWYQQKPGQPPKLLIYDASNLASGVPSRFMGSGSGTEYTLTISGVQREDAATYYCLGGYPAASYRTAFGGGTELEII
- Kd: < 0.1 nM
- stoichiometry N: 1
